In data set [1] the target is T1, AlNAC4 (Aeluropus lagopoides, UniProt A0A220T1T2 1-312).
T1 sequence: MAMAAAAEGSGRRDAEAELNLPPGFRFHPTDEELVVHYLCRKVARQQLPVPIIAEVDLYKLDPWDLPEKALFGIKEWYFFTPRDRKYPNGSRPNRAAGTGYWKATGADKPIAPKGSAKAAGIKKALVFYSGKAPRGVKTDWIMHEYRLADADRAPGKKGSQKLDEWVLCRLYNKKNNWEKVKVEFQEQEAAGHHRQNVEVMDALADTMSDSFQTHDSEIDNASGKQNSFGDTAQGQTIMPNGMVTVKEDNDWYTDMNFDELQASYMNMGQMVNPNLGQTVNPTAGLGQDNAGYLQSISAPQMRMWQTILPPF
Description: EMSA; 80 ng probe, 300-2400 ng protein; binding increases with protein; 15 mM HEPES, 35 mM KCl, 1 mM EDTA pH 8.0, 1 mM DTT, 1 mM MgCl2, 6% glycerol, 4 ug glycogen, 25 ul, room temperature 20 min; 10% acrylamide 0.5x TBE gel, ethidium bromide stain. To be noted: protein: recombinant, tags: 6xHis (pET-28a; not thrombin-cleaved), chain copies: 2. (Mobility shift assays separate free from complexed probe on a gel.)

Data set [2] deals with T1, AlNAC4. Description: EMSA; 15 mM HEPES, 35 mM KCl, 1 mM EDTA pH 8.0, 1 mM DTT, 1 mM MgCl2, 6% glycerol, 4 ug glycogen, 25 ul, room temperature 20 min; 10% acrylamide 0.5x TBE gel, ethidium bromide stain. To be noted: protein: recombinant; tags: 6xHis (pET-28a; not thrombin-cleaved); chain copies: 2; blunt.
The target in data set [3] is T1, AlNAC4. Description: EMSA; data not shown; 15 mM HEPES, 35 mM KCl, 1 mM EDTA pH 8.0, 1 mM DTT, 1 mM MgCl2, 6% glycerol, 4 ug glycogen, 25 ul, room temperature 20 min; 10% acrylamide 0.5x TBE gel, ethidium bromide stain. The following applies: protein: recombinant; tags: 6xHis (pET-28a; not thrombin-cleaved); chain copies: 2; blunt.

This is an account of results in publication PMC6215862, “AlNAC4 Transcription Factor From Halophyte Aeluropus lagopoides Mitigates Oxidative Stress by Maintaining ROS Homeostasis in Transgenic Tobacco”.

Where a chain is given by its changes, count along the chain named.

B1: NACBST (tandem NACRS, erd1 promoter) (dsDNA)
DNA 1: GGCCGCACACGCATGTGACACGCATGTGACACGCATGTGACACGCATGTGA
DNA 2: CTAGTCACATGCGTGTCACATGCGTGTCACATGCGTGTCACATGCGTGTGC
As to B1, the binding result with AlNAC4 [1] (5' overhangs 4 nt on both strands (GGCC, CTAG)) is reported as “binds”.

B2: pBSK+ MCS (dsDNA)
DNA 1: GGGGATCCACTAGTTCTAGAGCGGCCGCCA
DNA 2: TGGCGGCCGCTCTAGAACTAGTGGATCCCC
With B2, the binding result with AlNAC4 [2] is listed as “no binding”.

B3: NACBS (single NACRS with flanks, erd1 promoter) (dsDNA)
DNA 1: AGCTTGTGCAACTTGAGCTCTTCTTCTGTAACACGCATGTGTTGCGTTTGGTTTTTAATTTATTTGCCA
DNA 2: TGGCAAATAAATTAAAAACCAAACGCAACACATGCGTGTTACAGAAGAAGAGCTCAAGTTGCACAAGCT
B3: the binding result with AlNAC4 [1] (blunt) is listed as “binds”.

B4: mutated NACBS (CATGTG to AAAAAA, AACA to TTAA) (dsDNA)
DNA 1: B3 DNA 1 with A30T, A31T, C32A, C36A, T38A, G39A, T40A, G41A
DNA 2: B3 DNA 2 with C29T, A30T, C31T, A32T, G34T, G38T, T39A, T40A
Turning to B4, the binding result with AlNAC4 [3] was “no binding”.
